Assay results as given in the supplement of paper PMC11136658.

System: peptide library, one residue held at a place counted from the Y acceptor
Assay: relative phosphorylation of the sub-library (ratio to the mean residue at this position); higher = residue favoured
Procedure, shortened: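 Purified recombinant kinases were given 50 μM ATP with γ-32P-ATP and biotinylated Tyr-centred peptide library mixtures for 90 min in 384-well plates. Peptides bound to streptavidin membranes were rinsed and quantified by phosphorimaging, and intensities were normalized per position by the sum of the 18 randomized residues (16 with the Ser/Thr-free library) and multiplied by that number. The reported values are phosphorylation relative to the mean randomized residue.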

Sequence of TEK, construct: aa771-end, human (Q02763 771-1124, looked up): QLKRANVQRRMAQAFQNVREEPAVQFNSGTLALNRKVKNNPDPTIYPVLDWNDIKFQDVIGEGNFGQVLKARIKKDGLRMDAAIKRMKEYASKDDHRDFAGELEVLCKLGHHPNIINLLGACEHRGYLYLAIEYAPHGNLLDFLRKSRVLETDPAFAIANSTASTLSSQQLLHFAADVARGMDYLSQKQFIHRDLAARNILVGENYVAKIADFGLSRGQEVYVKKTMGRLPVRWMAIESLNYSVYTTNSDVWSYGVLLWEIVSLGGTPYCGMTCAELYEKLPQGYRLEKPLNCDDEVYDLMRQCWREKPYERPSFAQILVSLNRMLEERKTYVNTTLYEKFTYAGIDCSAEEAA
Sequence of ROS1, construct: aa1883-end, human (P08922 1883-2347, looked up): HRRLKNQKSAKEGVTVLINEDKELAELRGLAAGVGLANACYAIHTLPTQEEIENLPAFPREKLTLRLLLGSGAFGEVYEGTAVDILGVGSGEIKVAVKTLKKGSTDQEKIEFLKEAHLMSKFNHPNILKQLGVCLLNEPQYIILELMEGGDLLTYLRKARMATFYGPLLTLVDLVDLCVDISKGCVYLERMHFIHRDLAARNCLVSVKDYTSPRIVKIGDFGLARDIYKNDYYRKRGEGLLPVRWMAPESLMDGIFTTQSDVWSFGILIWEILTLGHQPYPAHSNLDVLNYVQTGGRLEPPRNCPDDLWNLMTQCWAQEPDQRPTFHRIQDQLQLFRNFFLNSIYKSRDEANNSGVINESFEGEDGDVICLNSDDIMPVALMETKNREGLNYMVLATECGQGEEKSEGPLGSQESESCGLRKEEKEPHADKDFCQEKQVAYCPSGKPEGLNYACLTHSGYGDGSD
Sequence of SRMS, construct: aa221-486, human (Q9H3Y6 221-486, looked up): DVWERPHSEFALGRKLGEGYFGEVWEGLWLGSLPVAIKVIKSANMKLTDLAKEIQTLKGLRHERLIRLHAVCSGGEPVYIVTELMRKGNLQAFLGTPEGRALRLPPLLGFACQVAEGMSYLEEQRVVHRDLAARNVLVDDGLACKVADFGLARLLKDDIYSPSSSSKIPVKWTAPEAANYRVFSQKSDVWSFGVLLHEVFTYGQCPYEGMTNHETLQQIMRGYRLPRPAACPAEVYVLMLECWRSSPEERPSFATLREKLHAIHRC

ROS1, construct: aa1883-end, human (from UniProt P08922)
relative phosphorylation
Conditions	at +1	at +2	at +3	at +4	at +5	at -1	at -2	at -3	at -4	at -5
A fixed	1.4	0.764	0.709	0.96	0.93	1.04	1.06	0.892	1.22	1.17
D fixed	0.482	0.396	0.211	0.611	0.583	1.09	0.882	0.994	1.09	0.993
E fixed	0.947	0.547	0.174	0.772	0.512	1.09	1.1	1.04	1.18	0.873
F fixed	1.06	1.19	1.65	1.19	1.47	0.882	0.738	0.932	0.878	0.868
G fixed	0.696	0.581	0.722	1.09	1.1	0.835	1.2	1.2	1.36	1.31
H fixed	1.07	0.954	1.67	1.13	0.93	1.21	1.07	1.09	0.888	0.99
I fixed	1.33	0.963	1.57	0.865	0.776	1.11	0.797	0.727	0.827	0.878
K fixed	0.501	1.3	0.858	1.27	1.3	0.592	1.01	0.968	1.04	1.08
L fixed	1.37	1.41	1.49	0.918	0.831	1.33	0.872	0.863	0.995	0.882
M fixed	1.36	1.17	1.33	1.07	0.873	0.975	0.733	0.828	0.855	0.922
N fixed	0.551	1.04	0.581	0.88	0.981	1.29	1.1	1.2	0.935	1.05
P fixed	0.446	0.904	0.532	0.972	1.64	1.45	1.29	1.23	1.19	1.24
Q fixed	1.09	0.94	0.669	1.14	0.958	0.964	1.16	0.915	1.11	0.963
R fixed	0.649	1.31	1.07	1.31	1.25	0.533	1.1	1.09	0.982	1.12
S fixed	1.26	1.01	0.793	0.979	1.2	0.975	1.18	1.17	0.898	0.967
T fixed	1.25	0.937	0.922	0.87	0.894	0.906	1.02	1.07	0.724	0.93
V fixed	1.42	1.08	1.27	0.988	0.622	0.976	0.906	0.824	0.859	0.879
W fixed	1.1	1.5	1.77	0.989	1.16	0.762	0.774	0.976	0.972	0.891
pThr fixed	0.802	0.447	0.162	0.305	0.359	0.848	0.859	0.877	0.86	0.871
pTyr fixed	1.06	0.646	0.306	0.529	0.409	1.74	1.03	1.15	1.09	0.896

SRMS, construct: aa221-486, human (from UniProt Q9H3Y6)
relative phosphorylation
Conditions	at +1	at +2	at +3	at +4	at +5	at -1	at -2	at -3	at -4	at -5
A fixed	1.61	0.852	0.745	0.969	1.04	0.678	1.08	0.923	1.13	1.02
D fixed	1.27	1.37	0.647	1.09	1.1	0.76	1.3	1.33	1.22	1.14
E fixed	2.77	1.87	0.602	1.41	1.23	0.764	1.61	1.88	1.18	1.07
F fixed	0.567	0.976	1.42	0.922	0.996	1.49	0.718	1.05	1.1	1.01
G fixed	0.832	0.583	0.964	1.15	1.18	0.296	1.01	1.07	1.08	1.18
H fixed	0.66	0.783	0.837	1.11	0.897	1.13	0.924	0.961	0.842	0.87
I fixed	1.26	1.07	2.19	0.812	0.864	2.65	0.963	0.778	0.816	0.921
K fixed	0.273	0.451	0.291	0.736	0.714	0.317	0.605	0.62	0.767	0.91
L fixed	0.788	1.07	1.56	0.795	0.92	1.98	0.921	0.839	1.03	0.919
M fixed	1.12	1.01	1.31	1.13	1.02	1.2	0.837	1.03	0.991	0.995
N fixed	0.539	1.17	0.534	0.818	0.958	0.564	1.08	1.26	0.945	1.08
P fixed	0.16	0.742	1	1.27	1.59	0.546	1.22	0.923	1.23	1.21
Q fixed	1.2	0.857	0.847	1.05	0.891	0.591	1.05	0.819	1.12	1.01
R fixed	0.361	0.635	0.397	0.871	0.768	0.351	0.576	0.671	0.867	0.946
S fixed	1.12	1.07	0.784	0.971	1	0.5	1.12	1.04	0.882	0.971
T fixed	1.12	1.26	1.01	0.923	1	1.26	0.998	1.01	0.754	0.879
V fixed	1.35	1.07	1.6	0.884	0.896	1.83	1.13	0.792	0.849	0.903
W fixed	1.01	1.16	1.27	1.09	0.942	1.1	0.856	0.994	1.2	0.962
pThr fixed	2.26	2.43	0.579	1.07	0.972	1.2	1.19	1.02	0.958	1.03
pTyr fixed	2.12	3.06	1.02	1.47	1.07	1.38	1.44	1.51	1.27	1.21

SYK, construct: Full length, human (from UniProt P43405)
relative phosphorylation
Conditions	at +1	at +2	at +3	at +4	at +5	at -1	at -2	at -3	at -4	at -5
A fixed	0.893	0.772	0.955	0.937	0.988	0.68	0.908	0.734	1.07	0.954
D fixed	1.01	1.13	0.812	1.23	1.14	4.23	2.04	2.29	1.89	1.54
E fixed	4.05	1.74	0.941	1.39	1.2	3.04	2.21	2.61	1.96	1.49
F fixed	0.838	1.27	1.12	1.09	1	0.665	0.675	0.914	1.07	1.02
G fixed	0.363	0.78	1.2	0.965	0.96	0.379	1.04	0.896	0.964	1.03
H fixed	0.665	0.752	0.813	0.988	0.919	0.673	0.863	0.873	0.769	0.933
I fixed	1.22	1.02	1.51	0.751	0.826	1.17	0.766	0.689	0.773	0.949
K fixed	0.25	0.588	0.584	0.875	0.916	0.204	0.46	0.459	0.593	0.681
L fixed	0.86	0.929	1.02	0.802	0.966	0.912	0.837	0.805	0.99	1.04
M fixed	0.907	0.965	0.924	1.1	0.944	0.725	0.728	0.758	0.818	0.944
N fixed	0.505	1.11	0.771	0.896	1.03	1.02	1.21	1.26	0.868	1.13
P fixed	0.288	0.669	1.67	1.08	1.27	0.672	1.03	0.868	1.08	0.966
Q fixed	1.1	0.972	0.761	1.11	0.983	0.674	1.13	0.864	1.11	1.08
R fixed	0.302	0.74	0.619	0.856	0.926	0.219	0.535	0.523	0.641	0.716
S fixed	1.1	1.01	0.892	0.97	0.965	0.587	1.1	0.915	0.758	0.895
T fixed	1.23	1.02	0.907	0.932	1.1	0.779	0.832	0.885	0.651	0.725
V fixed	1.47	0.978	1.4	0.874	0.89	0.935	0.857	0.703	0.811	0.772
W fixed	0.951	1.56	1.1	1.14	0.961	0.44	0.771	0.948	1.19	1.14
pThr fixed	3.24	2.33	0.946	1.54	1.38	6.21	3.86	2.93	2.36	1.85
pTyr fixed	6.41	3.62	1.53	1.73	1.32	4.49	2.56	3.83	2.99	2.2

TEK, construct: aa771-end, human (from UniProt Q02763)
relative phosphorylation
Conditions	at +1	at +2	at +3	at +4	at +5	at -1	at -2	at -3	at -4	at -5
A fixed	0.824	0.564	0.495	0.84	1.16	0.673	0.88	0.762	1.02	0.755
D fixed	0.525	0.606	0.254	0.752	0.411	0.863	0.972	0.981	0.932	0.844
E fixed	1.78	1.11	0.233	0.854	0.367	1.07	1.19	1.06	0.927	0.772
F fixed	0.935	1.43	1.97	1.16	0.471	1.19	0.833	1.21	0.976	1.18
G fixed	0.429	0.332	0.395	1.05	1.68	0.512	1.11	0.972	1.3	1.16
H fixed	1.12	0.955	1.47	1.06	0.691	1.2	1.09	1.08	0.997	1.03
I fixed	1.37	1.07	1.89	0.823	0.478	1.42	0.936	0.794	0.792	0.969
K fixed	0.577	0.6	0.665	0.986	0.996	0.594	0.83	0.828	1.26	1.26
L fixed	1.06	1.67	1.49	1.11	0.509	1.92	0.94	0.854	0.908	0.898
M fixed	1.16	1.4	1.18	1.42	0.608	1.5	0.868	0.988	0.839	0.948
N fixed	0.54	1.01	0.429	0.846	0.844	1.03	1.15	1.27	1.09	1.14
P fixed	1.31	0.606	0.505	1.43	3.89	0.878	0.913	1	1.07	0.967
Q fixed	1.15	0.913	0.581	1.31	0.866	0.891	1.25	1.01	1.16	1.03
R fixed	0.705	0.717	0.658	1.05	0.944	0.56	0.935	0.936	1.22	1.37
S fixed	0.816	0.725	0.445	0.795	1.97	0.756	1.06	1.11	0.917	0.963
T fixed	0.951	0.873	0.746	0.734	1.03	0.921	1.08	1.06	0.789	0.955
V fixed	1.89	1.03	1.81	0.871	0.498	1.22	0.926	0.941	0.787	0.852
W fixed	0.848	2.39	2.79	0.901	0.587	0.812	1.02	1.15	1.03	0.901
pThr fixed	0.806	1.6	0.252	0.346	0.313	1.22	0.849	0.769	0.71	0.686
pTyr fixed	2.39	1.81	0.341	0.473	0.276	1.97	0.786	1.34	0.874	0.643
